According to article PMC12141631:
Residue numbers refer to the chain shown, from its start. Read-outs that look alike come from different tables or passages of the source.

B1: human glycine receptor α3 subunit, α3em construct (receptor)
chain: ARSRSAPMSPSDFLDKLMGRTSGYDARIRPNFKGPPVNVTCNIFINSFGSIAETTMDYRVNIFLRQKWNDPRLAYSEYPDDSLDLDPSMLDSIWKPDLFFANEKGANFHEVTTDNKLLRIFKNGNVLYSIRLTLTLSCPMDLKNFPMDVQTCIMQLESFGYTMNDLIFEWQDEAPVQVAEGLTLPQFLLKEEKDLRYCTKHYNTGKFTCIEVRFHLERQMGYYLIQMYIPSLLIVILSWVSFWINMDAAPARVALGITTVLTMTTQSSGSRASLPKVSYVKAIDIWMAVCLLFVFSALLEYAAVNFVSRQHKELLRFRRKRKNKTEAFDMDDEVRESRFSFTAYGMGPCLQAKDGMTPKGPNHPVQVMPKSPDEMRKVFIDRAKKIDTISRACFPLAFLIFNIFYWVIYKILRHEDIHQQQD
B2: human glycine receptor α3 subunit, α3S346Eem construct (phosphorylation mimetic) (receptor)
chain: B1 chain with S337E

Experiments:
Assay in all cases: cryo-EM structure
[1] = molecular target: human glycine receptor β subunit, βem construct (human)
[2] = molecular target: human glycine receptor β subunit, βem construct (human); remark: listed apart in the source
[3] = molecular target: human glycine receptor β subunit, βem construct (human); remark: listed apart in the source

Row | Binder | stoichiometry N [1] | stoichiometry N [2] | stoichiometry N [3]
1 | B1 | 4 α3 per β | 4 α3 per β | 
2 | B2 | 4 α3 per β |  | 4 α3 per β
